Legend:
[1] = target: T1, SARS-COV-2 RBD (His-tagged, Sinobiologicals) (SARS-CoV-2 (Wuhan), UniProt P0DTC2 319-541); assay: ELISA, periplasmic extract 1/10, OD450 antigen/OD450 BSA [B]
[2] = target: T2, MERS-COV spike expressed on transfected cells (MERS-CoV, UniProt K9N5Q8 18-1353); assay: flow cytometry, transfected HEK cells, MFI GFP+/GFP- cells [1/3]
T2 sequence: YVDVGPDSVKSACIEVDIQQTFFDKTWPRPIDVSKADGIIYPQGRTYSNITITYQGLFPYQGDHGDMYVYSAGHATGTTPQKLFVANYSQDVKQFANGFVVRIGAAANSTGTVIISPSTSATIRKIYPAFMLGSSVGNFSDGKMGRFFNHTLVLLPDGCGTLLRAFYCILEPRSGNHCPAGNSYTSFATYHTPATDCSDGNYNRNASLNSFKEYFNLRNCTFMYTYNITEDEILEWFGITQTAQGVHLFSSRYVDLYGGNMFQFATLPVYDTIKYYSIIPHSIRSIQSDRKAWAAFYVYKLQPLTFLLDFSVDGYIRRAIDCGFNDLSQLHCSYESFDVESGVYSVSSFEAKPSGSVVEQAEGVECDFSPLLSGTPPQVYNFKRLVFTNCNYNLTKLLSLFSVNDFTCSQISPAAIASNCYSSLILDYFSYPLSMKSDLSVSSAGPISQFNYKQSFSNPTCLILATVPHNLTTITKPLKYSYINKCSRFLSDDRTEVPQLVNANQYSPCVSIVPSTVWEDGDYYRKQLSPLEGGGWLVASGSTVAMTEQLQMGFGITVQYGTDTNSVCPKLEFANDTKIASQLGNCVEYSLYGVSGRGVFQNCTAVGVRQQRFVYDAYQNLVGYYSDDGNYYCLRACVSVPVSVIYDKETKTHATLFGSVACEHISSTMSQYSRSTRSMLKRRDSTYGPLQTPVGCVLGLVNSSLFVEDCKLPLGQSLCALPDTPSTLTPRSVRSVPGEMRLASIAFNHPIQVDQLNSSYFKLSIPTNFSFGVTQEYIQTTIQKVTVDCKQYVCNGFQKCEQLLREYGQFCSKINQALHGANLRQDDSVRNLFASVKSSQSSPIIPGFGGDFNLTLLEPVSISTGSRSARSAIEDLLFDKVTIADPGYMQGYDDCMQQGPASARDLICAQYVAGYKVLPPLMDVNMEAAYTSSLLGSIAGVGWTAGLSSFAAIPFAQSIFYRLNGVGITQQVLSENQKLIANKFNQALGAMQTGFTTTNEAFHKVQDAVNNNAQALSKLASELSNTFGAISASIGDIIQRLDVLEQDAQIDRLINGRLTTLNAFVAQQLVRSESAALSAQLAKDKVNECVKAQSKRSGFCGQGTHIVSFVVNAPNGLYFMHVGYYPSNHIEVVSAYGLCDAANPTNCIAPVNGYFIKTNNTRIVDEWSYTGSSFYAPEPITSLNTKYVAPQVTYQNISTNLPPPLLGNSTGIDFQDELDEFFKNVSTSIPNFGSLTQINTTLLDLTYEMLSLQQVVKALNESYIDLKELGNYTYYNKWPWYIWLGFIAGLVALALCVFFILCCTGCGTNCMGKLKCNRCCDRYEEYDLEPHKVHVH

[3] = target: T2, MERS-COV spike expressed on transfected …; assay: flow cytometry, transfected HEK cells, MFI GFP+/GFP- cells [3/3]
[4] = target: T1, SARS-COV-2 RBD (His-tagged, …); assay: ELISA, periplasmic extract 1/10, OD450 antigen/OD450 BSA [D00002 FIG. 1 cont. D]
[5] = target: T1, SARS-COV-2 RBD (His-tagged, …); assay: ELISA, coated antigen, dilution series, OD450 [1/3]
BSA [6] = target: T3, BSA (bovine, UniProt P02769); assay: ELISA, coated BSA, dilution series, OD450 [1/3]
T3 construct: coated control antigen

[7] = target: T1, SARS-COV-2 RBD (His-tagged, …); assay: ELISA, periplasmic extract 1/10, OD450 antigen/OD450 BSA [D00002 FIG. 1 cont. D]; remark: listed apart in the source
[8] = target: T2, MERS-COV spike expressed on transfected …; assay: flow cytometry, transfected HEK cells, MFI GFP+/GFP- cells [2/3]
[9] = target: T1, SARS-COV-2 RBD (His-tagged, …); assay: ELISA, coated antigen, dilution series, OD450 [3/3]
BSA [10] = target: T3, BSA; assay: ELISA, coated BSA, dilution series, OD450 [3/3]

T3 sequence (P02769 25-607 limits assumed): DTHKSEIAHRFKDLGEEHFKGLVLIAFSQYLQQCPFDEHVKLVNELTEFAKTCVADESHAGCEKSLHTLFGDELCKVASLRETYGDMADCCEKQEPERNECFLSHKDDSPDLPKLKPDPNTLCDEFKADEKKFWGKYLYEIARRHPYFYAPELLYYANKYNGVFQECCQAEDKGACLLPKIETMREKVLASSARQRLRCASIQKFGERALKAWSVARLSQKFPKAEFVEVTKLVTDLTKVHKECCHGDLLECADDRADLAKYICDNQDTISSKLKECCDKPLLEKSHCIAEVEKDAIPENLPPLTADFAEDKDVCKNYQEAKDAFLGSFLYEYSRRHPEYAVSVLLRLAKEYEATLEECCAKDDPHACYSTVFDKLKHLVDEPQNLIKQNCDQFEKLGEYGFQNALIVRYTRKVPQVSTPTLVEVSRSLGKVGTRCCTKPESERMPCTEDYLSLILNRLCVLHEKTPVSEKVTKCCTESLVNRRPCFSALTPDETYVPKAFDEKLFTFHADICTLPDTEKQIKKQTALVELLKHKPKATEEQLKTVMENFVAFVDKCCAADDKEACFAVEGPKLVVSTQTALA

| Binder | binding result [2] | binding result (BSA [6]) | binding result [8] | also measured |
| --- | --- | --- | --- | --- |
| VHH R3_C4 (VHH) VHH: QVQLQESGGGLVQAGDSLRLSCAVSGRPFSTYTMGWFRQAPGKEREFVAAMRWSGGTIYYADSVKGRFTISRDNDKNTVNLEMNSLKPEDTAVYYCAAAYVSKANYGSLWYRASGLYDYWGQGTQVTVSS | no binding (tested: not given) |  |  | binding result [1]: no binding (tested: extract 1/10, concentration not given) |
| VHH R4_DC16 (VHH) VHH: QVQLQESGGGLVQAGDSLRLSCAVSGRPFSTYTMGWFRQAPGKEREFVAAMRWSGGTIYYADSVKGRFTISRDNAQNTVNLQMNSLKPEDTAVYYCAAAYVSKANYGSSWYRNSGLYDYWGQGTQVTVSS |  |  |  | binding result [3]: no binding (tested: not given); binding result [4]: no binding (tested: extract 1/10, concentration not given) |
| VHH R4_DC20 (VHH) VHH: QVQLQESGGGLVQTGDSLRLSCAVSGRPFSTYTMGWFRQAPGKEREFVASMRWSGGTMNYADSVKGRFTISRDNDQNTVNLQMNSLKPEDTAVYYCAAAYVSKANYGSLWYRNSGLYDYWGQGTQVTVSS |  | no binding (tested: 10 µg/ml) |  | binding result [5]: no binding (tested: 10 µg/ml); binding result [3]: no binding (tested: not given) |
| VHH R3_DC2 (VHH) VHH: QVQLQESGGGLVQTGDSLRLSCAVSGRPFSTYTMGWFRQAPGKEREFVASMRWSGGTKYYSDSVKGRFSISRDNDQNTVNLQMNSLKPEDTAVYYCAAAYVSKANYGSLWYRNSGLYDYWGQGTQVTVSS | no binding (tested: not given) |  |  |  |
| VHH R3_DC9 (VHH) VHH: QVQLQESGGGLVQTGDSLRLSCAVSGRPFSTYTMGWFRQAPGKEREFVASMRWSGGTMYYSDSVKGRFTISRDNDKNTVNLQMNSLKPEDTAVYYCAAAYVSKANYGSLWYRNSGLYDYWGQGTQVTVSS | no binding (tested: not given) |  |  |  |
| VHH R4_DC13 (VHH) VHH: QVQLQESGGGLVQTGDSLRLSCAVSGRPFSTYTMGWFRQAPGKEREFVASMRWSGGTVYYSDSVKGRFTISRDNDKNTVNLQMNNLKPEDTAVYYCAAAYVSKANYGSFWYRNSDLYDYWGQGTQVTVSS |  |  | no binding (tested: not given) | binding result [7]: no binding (tested: extract 1/10, concentration not given) |
| VHH R3_DC20 (VHH) VHH: QVQLQESGGGLVQAGDSLRLSCAVSGRPFSTYTMGWFRQAPGKEREFVAAMRWSGGTIYYADSVKGRFTISRDNAQNTVNLQMNSLEPEDTAVYYCAAAYVSKANYGSLWYRNSGLYDYWGQGTQVTVSS | no binding (tested: not given) | no binding (tested: 10 µg/ml) |  |  |
| VHH R4_DC9 (VHH) VHH: QVQLQESGGGLVQAGDSLRLSCAASGRIFSTYTMGWFRQAPGMEREFVAAIRWSGSTVYYADSVKGRFTISRDNAKNTVYLQMNSLKPEDTAVYYCAAARVSKANYGTLWYRASGLYDYWGQGTQVTVSS |  |  | no binding (tested: not given) | binding result [9]: no binding (tested: 10 µg/ml); binding result (BSA [10]): no binding (tested: 10 µg/ml) |
| VHH R4_DC6 (VHH) VHH: QVQLQESGGGLVQAGDSLRLSCAASGRILSTFTMGWFRQAPGKEREFVAAMRWNGGTKNYADSVKGRFTISRDNANSVVYLQMNSTKPEDTAVYYCAAAYVSKANYGSLWYRTPSLYDYWGQGTQVTVSS |  |  | no binding (tested: not given) | binding result [9]: no binding (tested: 10 µg/ml); binding result (BSA [10]): no binding (tested: 10 µg/ml) |
| VHH R3_DC23 (VHH) VHH: QVQLQESGGGLVQAGDSLTLSCAVSGRIFSTYTMGWFRQAPGKEREFVAAVRWGAGTIYYADSMKGRFTISRDSAKNTVDLQMNSTKPEDTAVYYCGAAYVSKANYGSLWYQDSRRYDYWGQGTQVTVSS |  | no binding (tested: 10 µg/ml) | no binding (tested: not given) | binding result [5]: no binding (tested: 10 µg/ml) |

Reference: patent publication US20250313611A1 (VIB VZW, published 2025)
